The labels stand for the following.
T1: human APJ receptor (hAPJ) (human, UniProt P35414 1-380)
T1 sequence (looked up): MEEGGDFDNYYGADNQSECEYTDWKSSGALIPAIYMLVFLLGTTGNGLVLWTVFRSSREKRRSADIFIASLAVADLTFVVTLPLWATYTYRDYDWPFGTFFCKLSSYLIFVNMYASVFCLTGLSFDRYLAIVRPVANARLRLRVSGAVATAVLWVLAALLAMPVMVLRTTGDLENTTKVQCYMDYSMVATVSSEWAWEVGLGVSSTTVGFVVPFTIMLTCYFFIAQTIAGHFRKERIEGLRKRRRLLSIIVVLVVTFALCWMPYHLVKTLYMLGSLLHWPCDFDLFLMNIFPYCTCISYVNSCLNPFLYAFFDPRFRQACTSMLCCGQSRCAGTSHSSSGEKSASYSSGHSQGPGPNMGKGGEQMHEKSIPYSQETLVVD

B1: Example 2: pE-R-C*-R-L-C*-H-K-G-P-(D-Nle)-a-f-OH (Disulfide C3-C6) (peptide)
peptide: ERCRLCHKGPLAF
HELM: PEPTIDE1{[Glp].R.C.R.L.C.H.K.G.P.[CCCC[C@@H](N[*:1])C(=O)[*:2]].[dA].[dF]}$PEPTIDE1,PEPTIDE1,3:R3-6:R3$$$V2.0
SMILES: CCCC[C@@H](NC(=O)[C@@H]1CCCN1C(=O)CNC(=O)[C@H](CCCCN)NC(=O)[C@H](Cc1c[nH]cn1)NC(=O)[C@@H]1CSSC[C@H](NC(=O)[C@H](CCCNC(=N)N)NC(=O)[C@@H]2CCC(=O)N2)C(=O)N[C@@H](CCCNC(=N)N)C(=O)N[C@@H](CC(C)C)C(=O)N1)C(=O)N[C@H](C)C(=O)N[C@H](Cc1ccccc1)C(=O)O
B2: Example 1: pE-R-C*-R-L-C*-H-K-G-P-Nle-P-F-OH (Disulfide C3-C6) (peptide)
peptide: ERCRLCHKGPLPF
HELM: PEPTIDE1{[Glp].R.C.R.L.C.H.K.G.P.[Nle].P.F}$PEPTIDE1,PEPTIDE1,3:R3-6:R3$$$V2.0
SMILES: CCCC[C@H](NC(=O)[C@@H]1CCCN1C(=O)CNC(=O)[C@H](CCCCN)NC(=O)[C@H](Cc1c[nH]cn1)NC(=O)[C@@H]1CSSC[C@H](NC(=O)[C@H](CCCNC(=N)N)NC(=O)[C@@H]2CCC(=O)N2)C(=O)N[C@@H](CCCNC(=N)N)C(=O)N[C@@H](CC(C)C)C(=O)N1)C(=O)N1CCC[C@H]1C(=O)N[C@@H](Cc1ccccc1)C(=O)O
B3: Example 4: pE-R-c*-R-L-C*-H-K-G-P-f-a-f-OH (Disulfide C3-C6) (peptide)
peptide: ERCRLCHKGPFAF
HELM: PEPTIDE1{[Glp].R.[dC].R.L.C.H.K.G.P.[dF].[dA].[dF]}$PEPTIDE1,PEPTIDE1,3:R3-6:R3$$$V2.0
SMILES: CC(C)C[C@@H]1NC(=O)[C@H](CCCNC(=N)N)NC(=O)[C@H](NC(=O)[C@H](CCCNC(=N)N)NC(=O)[C@@H]2CCC(=O)N2)CSSC[C@@H](C(=O)N[C@@H](Cc2c[nH]cn2)C(=O)N[C@@H](CCCCN)C(=O)NCC(=O)N2CCC[C@H]2C(=O)N[C@H](Cc2ccccc2)C(=O)N[C@H](C)C(=O)N[C@H](Cc2ccccc2)C(=O)O)NC1=O
B4: Example 8: pE-R-P-R-L-C*-H-K-G-P-Nle-P-C*-OH (peptide)
peptide: ERPRLCHKGPLPC
HELM: PEPTIDE1{[Glp].R.P.R.L.C.H.K.G.P.[Nle].P.C}$PEPTIDE1,PEPTIDE1,6:R3-13:R3$$$V2.0
SMILES: CCCC[C@@H]1NC(=O)[C@@H]2CCCN2C(=O)CNC(=O)[C@H](CCCCN)NC(=O)[C@H](Cc2c[nH]cn2)NC(=O)[C@@H](NC(=O)[C@H](CC(C)C)NC(=O)[C@H](CCCNC(=N)N)NC(=O)[C@@H]2CCCN2C(=O)[C@H](CCCNC(=N)N)NC(=O)[C@@H]2CCC(=O)N2)CSSC[C@@H](C(=O)O)NC(=O)[C@@H]2CCCN2C1=O
B5: Example 5: pE-R-P-R-L-C*-H-K-C*-P-Nle-P-F-OH (Disulfide C6-C9) (peptide)
peptide: ERPRLCHKCPLPF
HELM: PEPTIDE1{[Glp].R.P.R.L.C.H.K.C.P.[Nle].P.F}$PEPTIDE1,PEPTIDE1,6:R3-9:R3$$$V2.0
SMILES: CCCC[C@H](NC(=O)[C@@H]1CCCN1C(=O)[C@@H]1CSSC[C@H](NC(=O)[C@H](CC(C)C)NC(=O)[C@H](CCCNC(=N)N)NC(=O)[C@@H]2CCCN2C(=O)[C@H](CCCNC(=N)N)NC(=O)[C@@H]2CCC(=O)N2)C(=O)N[C@@H](Cc2c[nH]cn2)C(=O)N[C@@H](CCCCN)C(=O)N1)C(=O)N1CCC[C@H]1C(=O)N[C@@H](Cc1ccccc1)C(=O)O
B6: Example 7: pE-R-P-R-L-(D-hC)*-H-K-C*-P-(D-Nle)-p-f-OH (peptide)
peptide: ERPRLCHKCPLPF
HELM: PEPTIDE1{[Glp].R.P.R.L.[O=C([C@@H](CCS[*:3])N[*:1])[*:2]].H.K.C.P.[CCCC[C@@H](N[*:1])C(=O)[*:2]].[dP].[dF]}$PEPTIDE1,PEPTIDE1,6:R3-9:R3$$$V2.0
SMILES: CCCC[C@@H](NC(=O)[C@@H]1CCCN1C(=O)[C@@H]1CSSCC[C@@H](NC(=O)[C@H](CC(C)C)NC(=O)[C@H](CCCNC(=N)N)NC(=O)[C@@H]2CCCN2C(=O)[C@H](CCCNC(=N)N)NC(=O)[C@@H]2CCC(=O)N2)C(=O)N[C@@H](Cc2c[nH]cn2)C(=O)N[C@@H](CCCCN)C(=O)N1)C(=O)N1CCC[C@@H]1C(=O)N[C@H](Cc1ccccc1)C(=O)O
B7: Example 6: pE-R-P-R-L-c*-H-K-C*-P-f-a-f-OH (peptide)
peptide: ERPRLCHKCPFAF
HELM: PEPTIDE1{[Glp].R.P.R.L.[dC].H.K.C.P.[dF].[dA].[dF]}$PEPTIDE1,PEPTIDE1,6:R3-9:R3$$$V2.0
SMILES: CC(C)C[C@H](NC(=O)[C@H](CCCNC(=N)N)NC(=O)[C@@H]1CCCN1C(=O)[C@H](CCCNC(=N)N)NC(=O)[C@@H]1CCC(=O)N1)C(=O)N[C@@H]1CSSC[C@@H](C(=O)N2CCC[C@H]2C(=O)N[C@H](Cc2ccccc2)C(=O)N[C@H](C)C(=O)N[C@H](Cc2ccccc2)C(=O)O)NC(=O)[C@H](CCCCN)NC(=O)[C@H](Cc2c[nH]cn2)NC1=O

From patent publication US9908919B2, “Cyclic apelin derivatives for the treatment of heart failure” (priority 2013, dated 2018) come the findings set out here.

Where a SMILES comes first, the peptide text is derived from it. Bridges are numbered along the chain shown (N, C = ends). [ ]: non-standard residue; d: D form. pGlu = O=C1CC[C@@H](C(=O)O)N1; dNle = CCCC[C@@H](N)C(=O)O

The first data set concerns the target T1, human APJ receptor (hAPJ). The data set is described as follows: cell-based or functional assay.
Conditions: not given
Regarding B1, the “hAPJ Ca^2+ Flux EC50” value amounted to 77 nM.

Regarding B2, the “hAPJ Ca^2+ Flux EC50” value stood at 3.5 nM.

On to B3, for which the “hAPJ Ca^2+ Flux EC50” value turned out to be 496 nM.

Take B4: the “hAPJ Ca^2+ Flux EC50” value worked out at 43.7 nM.

On to B5, for which the “hAPJ Ca^2+ Flux EC50” value came out at 6.9 nM.

Regarding B6, the “hAPJ Ca^2+ Flux EC50” value amounted to 9.7 nM.

For the molecule [pGlu]RCRLCHKGP[dNle]-{NH‑phenethyl} (disulfide 3-6) [Example 3: pE-R-C*-R-L-C*-H-K-G-P-(D-Nle)-NH(Phenethyl) (Disulfide C3-C6)], the “hAPJ Ca^2+ Flux EC50” value stood at 871 nM.

As to B7, the “hAPJ Ca^2+ Flux EC50” value worked out at 12.3 nM.

System in a further data set: not listed separately
The data set is described as follows: in vitro. Conditions: rat, plasma.
Description: The calcium flux protocol described above was followed, with the following changes. The peptides were also incubated with 5% rat plasma (Bioreclamation # [sequence]-M, Na Heparin-treated). Readings were taken at time points t0 and t24 hrs, after incubation in a 37° C. tissue culture incubator. Peptide plasma half-life in minutes was estimated by calculating the following: • 1) LN((EC50 at t0)/(EC50 at t24 hrs)), • 2) Calculate slope of value above and • 3) t112=0.693/(slope^2).
In turn, `CCCC[C@@H](NC(=O)[C@@H]1CCCN1C(=O)[C@@H]1CSSCC[C@@H](NC(=O)[C@H](CC(C)C)NC(=O)[C@H](CCCNC(=N)N)NC(=O)[C@@H]2CCCN2C(=O)[C@H](CCCNC(=N)N)NC(=O)[C@@H]2CCC(=O)N2)C(=O)N[C@@H](Cc2c[nH]cn2)C(=O)N[C@@H](CCCCN)C(=O)N1)C(=O)N1CCC[C@@H]1C(=O)N[C@H](Cc1ccccc1)C(=O)O` [Example 7, pE-R-P-R-L-(D-hC)*-H-K-C*-P-(D-Nle)-p-f-OH] (HELM PEPTIDE1{[Glp].R.P.R.L.[O=C([C@@H](CCS[*:3])N[*:1])[*:2]].H.K.C.P.[CCCC[C@@H](N[*:1])C(=O)[*:2]].[dP].[dF]}$PEPTIDE1,PEPTIDE1,6:R3-9:R3$$$V2.0) yielded a half-life of 52 min.

The molecule `CCCC[C@@H](NC(=O)[C@@H]1CCCN1C(=O)CNC(=O)[C@H](CCCCN)NC(=O)[C@H](Cc1c[nH]cn1)NC(=O)[C@@H]1CSSC[C@H](NC(=O)[C@H](CCCNC(=N)N)NC(=O)[C@@H]2CCC(=O)N2)C(=O)N[C@@H](CCCNC(=N)N)C(=O)N[C@@H](CC(C)C)C(=O)N1)C(=O)N[C@H](C)C(=O)N[C@H](Cc1ccccc1)C(=O)O` [Example 2, pE-R-C*-R-L-C*-H-K-G-P-(D-Nle)-a-f-OH] (HELM PEPTIDE1{[Glp].R.C.R.L.C.H.K.G.P.[CCCC[C@@H](N[*:1])C(=O)[*:2]].[dA].[dF]}$PEPTIDE1,PEPTIDE1,3:R3-6:R3$$$V2.0) yielded a half-life of 225 min.

As to `CCCC[C@@H](NC(=O)[C@@H]1CCCN1C(=O)CNC(=O)[C@H](CCCCN)NC(=O)[C@H](Cc1c[nH]cn1)NC(=O)[C@@H]1CSSC[C@H](NC(=O)[C@H](CCCNC(=N)N)NC(=O)[C@@H]2CCC(=O)N2)C(=O)N[C@@H](CCCNC(=N)N)C(=O)N[C@@H](CC(C)C)C(=O)N1)C(=O)NCCc1ccccc1` [Example 3, pE-R-C*-R-L-C*-H-K-G-P-(D-Nle)-NH(Phenethyl)] (HELM PEPTIDE1{[Glp].R.C.R.L.C.H.K.G.P.[CCCC[C@@H](N[*:1])C(=O)[*:2]].[c1ccc(CCN[*:1])cc1]}$PEPTIDE1,PEPTIDE1,3:R3-6:R3$$$V2.0), the half-life was 1200 min.

For the molecule `CCCC[C@H](NC(=O)[C@@H]1CCCN1C(=O)[C@@H]1CSSC[C@H](NC(=O)[C@H](CC(C)C)NC(=O)[C@H](CCCNC(=N)N)NC(=O)[C@@H]2CCCN2C(=O)[C@H](CCCNC(=N)N)NC(=O)[C@@H]2CCC(=O)N2)C(=O)N[C@@H](Cc2c[nH]cn2)C(=O)N[C@@H](CCCCN)C(=O)N1)C(=O)N1CCC[C@H]1C(=O)N[C@@H](Cc1ccccc1)C(=O)O` [Example 5, pE-R-P-R-L-C*-H-K-C*-P-Nle-P-F-OH] (HELM PEPTIDE1{[Glp].R.P.R.L.C.H.K.C.P.[Nle].P.F}$PEPTIDE1,PEPTIDE1,6:R3-9:R3$$$V2.0), the half-life amounted to 16 min.

For the molecule `CC(C)C[C@H](NC(=O)[C@H](CCCNC(=N)N)NC(=O)[C@@H]1CCCN1C(=O)[C@H](CCCNC(=N)N)NC(=O)[C@@H]1CCC(=O)N1)C(=O)N[C@@H]1CSSC[C@@H](C(=O)N2CCC[C@H]2C(=O)N[C@H](Cc2ccccc2)C(=O)N[C@H](C)C(=O)N[C@H](Cc2ccccc2)C(=O)O)NC(=O)[C@H](CCCCN)NC(=O)[C@H](Cc2c[nH]cn2)NC1=O` [Example 6, pE-R-P-R-L-c*-H-K-C*-P-f-a-f-OH] (HELM PEPTIDE1{[Glp].R.P.R.L.[dC].H.K.C.P.[dF].[dA].[dF]}$PEPTIDE1,PEPTIDE1,6:R3-9:R3$$$V2.0), the half-life was 50 min.

With `CC(C)C[C@@H]1NC(=O)[C@H](CCCNC(=N)N)NC(=O)[C@H](NC(=O)[C@H](CCCNC(=N)N)NC(=O)[C@@H]2CCC(=O)N2)CSSC[C@@H](C(=O)N[C@@H](Cc2c[nH]cn2)C(=O)N[C@@H](CCCCN)C(=O)NCC(=O)N2CCC[C@H]2C(=O)N[C@H](Cc2ccccc2)C(=O)N[C@H](C)C(=O)N[C@H](Cc2ccccc2)C(=O)O)NC1=O` [Example 4, pE-R-c*-R-L-C*-H-K-G-P-f-a-f-OH] (HELM PEPTIDE1{[Glp].R.[dC].R.L.C.H.K.G.P.[dF].[dA].[dF]}$PEPTIDE1,PEPTIDE1,3:R3-6:R3$$$V2.0), the half-life is 86 min.

For `CCCC[C@H](NC(=O)[C@@H]1CCCN1C(=O)CNC(=O)[C@H](CCCCN)NC(=O)[C@H](Cc1c[nH]cn1)NC(=O)[C@@H]1CSSC[C@H](NC(=O)[C@H](CCCNC(=N)N)NC(=O)[C@@H]2CCC(=O)N2)C(=O)N[C@@H](CCCNC(=N)N)C(=O)N[C@@H](CC(C)C)C(=O)N1)C(=O)N1CCC[C@H]1C(=O)N[C@@H](Cc1ccccc1)C(=O)O` [Example 1, pE-R-C*-R-L-C*-H-K-G-P-Nle-P-F-OH] (HELM PEPTIDE1{[Glp].R.C.R.L.C.H.K.G.P.[Nle].P.F}$PEPTIDE1,PEPTIDE1,3:R3-6:R3$$$V2.0), the half-life turned out to be 4 min.

A word on the half-life: it is the time needed for the level to fall by half in the phase considered. High values mean slow decline, low ones rapid decline.
